Measured values as given in the DeepSol protein solubility set.

Test: soluble on expression in E. coli; label from the status in PepcDB or PDB records

Sequence | soluble on expression in E. coli
MWAAYFEKTLVYKQNVKKSRKSKKEDPAEAEKLMKQALEEYLPKYSELLPIILARGTVTLFKNLALTAKDAMTPKEVEPEEPTEEELAQQRRQQRAAAAPQQLEFKFEVAQGMKAVSTNDPEMEKKYAAENEVVAQKQSGATWTPDELASLVRLSTEKYPAGTPNRWEQMGRVLNRSAEDVIAMAGKMKQMKQEDYTKLLMTTIQQSVPVEEKSEDDWSQAEQKAFETALQKYPKGTDERWERISEEIGSKTKKQVMVRFKQLAEMIRKKKTNDT | not soluble
MIYLRKLKKEDLMSLWEMAYSQLNPVWKQYDAPYYDDYQYFSNFKEFELQKSESILSNSNRLGIFVDDKLVGTVSRYWVCKETRWMELGIGIYDKKFWNTGIGKVAMLQWIDRTFQDYLELEHLGLTTWSGNIGMMKLAEKLRMKKEAHIPKVRYYQGKYFDSIKYGILREDWEKINDGYYQINGNS | not soluble
MSLSDFHEVRFPLDVALRGSGGPVRRTEIVTLASGQEHRNSRWADSRRRYDAGLGMRTLDALHAVLSFFEERRGRMYGFRYRDRVDYRSGPPSQAPAPIDQAIGTGDGATRVFALAKTYGGGPQAYRRTIAKPVAGSVRVAVNGVELAAGAVSCDPATGRLTFAPGAVPPPGAAITAGFEFDVPVRFDTDELSIDMAAFTAGEVPRIPLIEIVLEGHHHHHH | soluble
MNINEPSVSIIMATYNSEKFLRETLDSICCQTYGNWELIITDDSSTDNTSDILRDYSERYNNIFYSINEVNQGAAISRNKCISQAKGMYIAFIDSDDLWAHNKLEKHIHFIAEHNSAISFTSYELMNENGIPLGKYVDANIPPVLTYNDMLRKKATIGCSTVILSSKLVGEFKMPLLRTGQDYATWLLLLKKVEVAHHFPKVLTKYRVCKNSISRNKFKKAKRQWQIYREVEKLPFYESIVCFCFYAWRAVFRK | not soluble
MPLPDFHVSEPFTLGIELEMQVVNPPGYDLSQDSSMLIDAVKNKITAGEVKHDITESMLELATDVCRDINQAAGQFSAMQKVVLQAATDHHLEICGGGTHPFQKWQRQEVCDNERYQRTLENFGYLIQQATVFGQHVHVGCASGDDAIYLLHGLSRFVPHFIALSAASPYMQGTDTRFASSRPNIFSAFPDNGPMPWVSNWQQFEALFRCLSYTTMIDSIKDLHWDIRPSPHFGTVEVRVMDTPLTLSHAVNMAGLIQATAHWLLTERPFKHQEKDYLLYKFNRFQACRYGLEGVITDPHTGDRRPLTEDTLRLLEKIAPSAHKIGASSAIEALHRQVVSGLNEAQLMRDFVADGGSLIGLVKKHCEIWAGD | soluble
MGSDKIHHHHHHMPQTEAPDRILLIKLRHHGDILLTTPVARTLKSRFPQCEIDMLVYRETVPLLQHNPDIARVWTLDRSLRGWRKLVSQLRLLLALRRRRYQTVIHLSDQMQGAFFAKLLARRHAIGFDYPKRRKSPWHRFFTALAPLAPSDTLHTVSQNLLALSPLGITPTADEQRCVLPIQASDREAVAALLREAGVSGPYIVIHPSSRWFFKCWEDDRFAGLAEALASDGWSIVLTAAPDPAEMDMVAAIQGKIRSDRVVSVAGRLTLNQLAAIIDGARMFIGVDSVPMHMAAALGKDTVALFGPSKIHEWHPWMTRHRLLNAADYGELIDPDQVDTSTRQRYLKNIPLEAALRASRELLSSPAQE | not soluble
MGSDKIHHHHHHMHQYTNIKKAIQLSNSFWDVTTAAGMANIATRNLGNGRHEAVASGRQFTNMSSYSYLGLDSHPAILRAAADAVMNTGSLNTSISRIRVQFDILQQAEEALASLVDAETLTVPSCAAAAAATLPLLASGALTGDVAPLMVFDKNAHFCLNMMKPICADETEIQTIRHNDLNALEDLCKTHQRVAYVADGVYSTGGMAPVKELLALQDKYGLFLFFDEAHGLSTLGHLGRGLVLEEMGAINDRTLIVTSLNKGFGASGGAIFLGPRGDAERRKLATRFGGPVTWSQRINTAGLGAIIESVAVHKSAELPALQQKLQDNIRLFDQHVASENSGDRLPIRFVSIGSEERTILYAKSLLEDGYYTSPIFFPVIAKGRAGLRIMIRANMTTEEIERFGACLKQLRASHE | not soluble
MILVTGFEPFGSLEHNPSQALLDLLPSEVDGKPLRKAVLPVDAEALGEALEDLHREGPKAVLHLGLAEDRPVLTLERLAVNLLDFPRPDNRGRVLEDLPIVPGGPLALPARFPVKPVLARWREAGIPGRPSLSAGSYLCNQAFYLSLYRLPEEVPVGFLHLPPDETLALKRPRPYVPLEVQARAVRLALEHL | soluble
MNTQSPPSPHDPHGAAALPFRLWTAEERRASLDTALREWRDGEDVWVYGYGSLIWRPDFDFVERRLATLHGHHRALCLWSRVNRGTPECPGLVFGLDRGGSCRGVVYRLAGRQVPDYFPALWDREMSTGAYLPRWLRCATEHGPVNALVFIMNRANPAYIRALPEPELLAIVRRASGRYGPCTEYVVQTAQALRQAGIRDARLEQIARQLEADVHPLGVLEHHHHHH | not soluble
MDSRVWLPLIGAHLLPRDISVITQMIANNNNTSISRSSTNSSKPEEKNSKKFLIERFLDDDPSPPASILSPSPKAAIPSPIINPAVEFVNGGYGVKNPLAPLISSFETTSIPCSTVSPSSLISSSKDEFQDSLTCHICGKKFGLQRLLNRHIKCHSDLKRYLCTFCGKGFNDTFDLKRHTRTHTGVRPYKCEQCEKSFTQRCSLESHLRKVHGVTHQYAYKERRSKVFVCEDCGYTDEKFEVYLSHIKVVHPFSAAYLRFTQLQKKNSSMKPEQLSKISL | not soluble
SNDLSQWSISKDSNLDSPWIEGIPGCGIPGAGSLVEHIDRQILVLQRDGRYIVGLLRSYDQYANLVLENTFERFVLNDSYCDEPLGVFIIRGENVALLGEVDGEKESQWLSHLHTVSLEDTKKTIRGKRQATKALLHSQPERVEWTFYDDAFF | soluble
MGSDKIHHHHHHGKEEEGPIPTDRQVPIGVMEASLSTRVSTRGVINTDIYKLGIFRTNANGYPPQYDAPYSYDGAAGWTATTEILVDHRSASLYAYYPYQSVSFADNTTKAILVAQIYDAAKDMCYGSATSADGSGMINNDHKGVRFIDMKHAYARLKLTFVRGTNVMSGRKCKIENIVLKNNSTNFYLQRQVDITTGTITEGTPAAEGYVHNPNVEIASGNQVYEYLLPPQSLTDNKLTISVTVDGEVRTVTVTAFGGTLNAGGYYHVTLTINDVQIVPSAGVTDNGYTSGDDPKNPIQNNTPSVV | not soluble
MSLRMMNKRILKGTLTAIAALMSAHAFAGQEVTVYTAFETDLLAKYKSAFEKENPDIEIKWVRDSTGIMTAKLLAEKDNPRAEVVWGLAGSSMALLKDQGVLKPYTPKGANELRANLNDPQAQQAWYGNDAFFNAVCFNEAVAKQLNLPKPQSWEDLTNPVYKGHIAMPNPASSGTGYMQVSAWLQNMGEDKAWDYMQRLDQNIAHYTHSGSKPCVQAGMGEVAIGISMATRGAKLKTQGAPLDVIVPNGIGWESEAVGLVKESDAAKRVVDWSVSKAANELYIESYPIVGHQDVSKQVPNYPNVEKVMAKMDFTQMGVDRARVLQTWSEKFDAKSEPKEGHHHHHH | soluble
MGSDKIHHHHHHLSREARYLEEARGFYQSGKFSSAGIYARKVIRREPSNGEAQALLGHLAFRSGEHQEAMSCYLKAQAAGFQDQELRLNLVTLHERREAFFDAVNLLRELVEETPQDLSLQLRLGINASRTGDMTTAESALLAALAGDEQAAQASLNLGHVYKAKGDTDKAAAFYHDYIRLAPSQQATAYWSLADLKNYRFTEQDEAALKANIAAEEFSQASQSLFHFALNRVYEQRKQGEQAFDAVRMANQLMRPLRPFKREAFTRLVDSLKSAEVKPRGEETSGPWTPIFIVGMPRSGTTLCEQILASHSQIAATDELPFMERLALSLEMKGGYGAMLPRLSEEQIAQMRQQYIEQVNQYLKAQGEASPSLVPSLVIDKNPNNFIHIGLIKTLFPEAKIINVIRDARDNAMGVYKQHFSHGHDYSYHLDDICHYWQLYLELMAHWQQAYGDSLYHLCFEQLVKAPDQQIPAMVDYVGLALEPACLKFYESKRSVLTPSASQVRRPMNVKAIGQSEAYAAFIPNAYRTLTVIADRAHKSFLS | not soluble
